The data set deals with the molecule itself. Kind of data set: crystal structure; native wild-type apo holoenzyme extracted from E. coli BL21(DE3); hanging drop, 0.1 M MES pH 6.0, 10% glycerol, 10% PEG 8000; space group R32, one catalytic and one regulatory chain in the asymmetric unit; 2.06 Å.

B1: E. coli aspartate transcarbamoylase (ATCase) regulatory chain (natural protein, E. coli (endogenous in BL21(DE3)), UniProt P0A7F3 1-153, looked up)
chain: MTHDNKLQVEAIKRGTVIDHIPAQIGFKLLSLFKLTETDQRITIGLNLPSGEMGRKDLIKIENTFLSEDQVDQLALYAPQATVNRIDNYEVVGKSRPSLPERIDNVLVCPNSNCISHAEPVSSSFAVRKRANDIALKCKYCEKEFSHNVVLAN
notes: Aspartate transcarbamoylase regulatory chain, E. coli, wild type, native; also called regulatory subunit; source: endogenous, extracted from E. coli BL21(DE3), purified as native holoenzyme (Ni-NTA, HiLoad Superdex 200)
In the case of B1, the binding result is “binds”.

B2: E. coli aspartate transcarbamoylase (ATCase) catalytic chain (enzyme, E. coli (endogenous in BL21(DE3)), UniProt P0A786 1-311, looked up)
chain: MANPLYQKHIISINDLSRDDLNLVLATAAKLKANPQPELLKHKVIASCFFEASTRTRLSFETSMHRLGASVVGFSDSANTSLGKKGETLADTISVISTYVDAIVMRHPQEGAARLATEFSGNVPVLNAGDGSNQHPTQTLLDLFTIQETQGRLDNLHVAMVGDLKYGRTVHSLTQALAKFDGNRFYFIAPDALAMPQYILDMLDEKGIAWSLHSSIEEVMAEVDILYMTRVQKERLDPSEYANVKAQFVLRASDLHNAKANMKVLHPLPRVDEIATDVDKTPHAWYFQQAGNGIFARQALLALVLNRDLVL
notes: Aspartate transcarbamoylase catalytic chain, E. coli, wild type, native form lacking the His tag; Crystallised as part of the native holoenzyme; also called catalytic subunit; source: endogenous, extracted from E. coli BL21(DE3), purified as native holoenzyme (Ni-NTA, HiLoad Superdex 200)
Consider B2, for which the binding result is “binds”.
